Test results as given in PMC2791212, “N-Terminal Deletion of Peptide:N-Glycanase Results in Enhanced Deglycosylation Activity” (PLoS ONE, 2009).

Assays:
[1] = target: T1, Peptide:N-glycanase from yeast (Png1p), full length (S. cerevisiae, UniProt Q02890 1-363); experiment: SPR; RNase B (40 µg/ml, 10 mM sodium acetate pH 5.31) amine-coupled to a CT405 chip; Png1p or Png1p-ΔH1 as analytes (80-1000 nM), 25°C, 10 mM HEPES pH 7.4, 5 µl/min; 1:1 Langmuir model, global fit; KD = koff/kon; conditions: both partners purified
T1 construct: Png1p (peptide:N-glycanase), S. cerevisiae W303-1a, gene amplified from genomic DNA, amino acids 1-363, cloned into EcoRI and HindIII sites of pET-22b(+); Plasmid pET-22b/png1p; eluted as 'Protein-His6'; The vector may add further residues at the N-terminus (cloning at EcoRI of pET-22b); also called PNGase; wild type Png1p; source: E. coli BL21 (DE3) pLysS, purified (Ni2+-NTA)
T1 sequence (looked up): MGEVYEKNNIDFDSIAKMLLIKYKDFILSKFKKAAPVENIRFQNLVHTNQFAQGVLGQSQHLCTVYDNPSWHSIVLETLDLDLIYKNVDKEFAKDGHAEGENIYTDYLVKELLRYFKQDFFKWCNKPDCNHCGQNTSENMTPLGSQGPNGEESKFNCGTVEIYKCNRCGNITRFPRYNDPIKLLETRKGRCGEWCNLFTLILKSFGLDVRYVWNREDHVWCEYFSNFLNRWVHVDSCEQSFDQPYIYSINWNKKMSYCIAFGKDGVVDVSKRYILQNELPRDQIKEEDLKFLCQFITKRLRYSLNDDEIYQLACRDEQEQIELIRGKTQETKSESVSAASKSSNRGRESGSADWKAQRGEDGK

[2] = target: T2, Png1p-ΔH1 (33-363 aa), N-terminal H1 helix deletion mutant of S. cerevisiae Png1p (S. cerevisiae, UniProt Q02890 33-363); experiment: as above; conditions: both partners purified
T2 construct: Png1p (peptide:N-glycanase), S. cerevisiae W303-1a, amino acids 33-363 (lacks the N-terminal H1 helix), cloned into EcoRI and HindIII sites of pET-22b(+); Plasmid pET-22b/png1p-ΔH1; eluted as 'Protein-His6'; also called N-terminal H1 deletion mutant; source: E. coli BL21 (DE3) pLysS, purified (Ni2+-NTA)
T2 sequence (looked up): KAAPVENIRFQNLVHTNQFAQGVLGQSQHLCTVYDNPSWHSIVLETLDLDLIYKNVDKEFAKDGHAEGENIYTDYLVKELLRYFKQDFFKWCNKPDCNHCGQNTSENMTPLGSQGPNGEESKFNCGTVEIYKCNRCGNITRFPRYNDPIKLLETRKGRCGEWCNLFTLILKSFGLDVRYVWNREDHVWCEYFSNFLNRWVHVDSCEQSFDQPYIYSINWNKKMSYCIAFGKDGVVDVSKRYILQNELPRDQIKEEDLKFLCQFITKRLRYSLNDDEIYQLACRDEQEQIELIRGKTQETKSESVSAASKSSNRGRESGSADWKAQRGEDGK

B1: Ribonuclease B (RNase B), denatured (natural protein, UniProt P61823 27-150, looked up)
chain: KETAAAKFERQHMDSSTSAASSSNYCNQMMKSRNLTKDRCKPVNTFVHESLADVQAVCSQKNVACKNGQTNCYQSYSTMSITDCRETGSSKYPNCAYKTTQANKHIIVACEGNPYVPVHFDASV
modifications: N-linked glycan (glycoprotein; position not stated)
notes: Ribonuclease B, the glycosylated form of pancreatic ribonuclease; Denatured by heating at 100°C for 10 min and rapid freezing (deglycosylation methods); also called denatured RNase B
Kd [1]: 7.7 µM
koff [1]: 0.094 s⁻¹
kon [1]: 12200 M⁻¹ s⁻¹
Kd [2]: 2.9 µM
koff [2]: 0.05 s⁻¹
kon [2]: 17000 M⁻¹ s⁻¹
